The source of these data is the Immune Epitope Database (IEDB).

In test [1] the target is HLA-A*11:01. Kind of test: IEDB peptide-MHC binding, purified MHC/competitive/fluorescence; ≥ and ≤ were set here for values at or beyond the usual limits of such assays. Particulars: source organism: Zaire ebolavirus.
Test [2] deals with HLA-A*02:01. Described as above. Particulars: source organism: Zaire ebolavirus.
A further test has as its target HLA-A*24:02. The test is described as above. The conditions noted are these: source organism: Zaire ebolavirus.
Test [3] addresses HLA-B*15:01. Described as above. The conditions noted are these: source organism: Zaire ebolavirus.
Test [4] deals with HLA-A*03:01. The description is as above. The conditions noted are these: source organism: Zaire ebolavirus.
The target in test [5] is HLA-B*57:01. Kind of test: IEDB peptide-MHC binding, purified MHC/competitive/radioactivity; filed as Kd, often an IC50 or EC50 that approximates it; ≥ and ≤ were set here for values at or beyond the usual limits of such assays.
Another test has as its target HLA-A*01:01. Nature of the test: IEDB peptide-MHC binding, purified MHC/direct/fluorescence; filed as Kd, often an IC50 or EC50 that approximates it; ≥ and ≤ were set here for values at or beyond the usual limits of such assays.
Test [6] concerns the target HLA-A*11:01. The description is as above.
A further test deals with HLA-B*40:01. Described as above.
For a further test, the target named is HLA-A*31:01. Described as above.
For a further test, the target named is HLA-A*69:01. The test is described as above.
The target in the next test is HLA-B*48:01. The test is described as above. The conditions noted are these: source organism: Mycobacterium tuberculosis variant bovis.
Test [7] deals with HLA-B*18:01. Described as above. Particulars: source organism: Mycobacterium tuberculosis variant bovis.
Test [8] concerns the target HLA-B*57:01. Described as above.
Test [9] addresses HLA-B*15:01. The description is as above.
A further test concerns the target HLA-B*58:01. The description is as above.
Another test concerns the target HLA-B*27:05. The test is described as above.
For test [10], the target named is HLA-B*46:01. The description is as above. Particulars: source organism: Mycobacterium tuberculosis variant bovis.
The target in a further test is HLA-B*08:01. The description is as above.
For test [11], the target named is HLA-A*29:02. The test is described as above.
Test [12] deals with HLA-A*03:01. Described as above.
The target in test [13] is HLA-A*26:01. Described as above. Particulars: source organism: Escherichia coli O157:H7.
A further test has as its target HLA-B*44:02. The description is as above. Particulars: source organism: Escherichia coli O157:H7.
A further test concerns the target HLA-C*03:03. The test is described as above.
Another test addresses HLA-B*15:17. The test is described as above. The conditions noted are these: source organism: Escherichia coli O157:H7.
A further test has as its target HLA-A*02:19. Nature of the test: IEDB peptide-MHC binding, purified MHC/competitive/fluorescence; filed as Kd, often an IC50 or EC50 that approximates it; ≥ and ≤ were set here for values at or beyond the usual limits of such assays. Particulars: source organism: Salmonella enterica subsp. enterica serovar Typhi.
A further test deals with HLA-A*02:11. The description is as above. The conditions noted are these: source organism: Salmonella enterica subsp. enterica serovar Typhi.
A further test concerns the target HLA-A*02:03. The description is as above. Particulars: source organism: Salmonella enterica subsp. enterica serovar Typhi.
The target of a further test is HLA-A*02:12. Described as above. The conditions noted are these: source organism: Salmonella enterica subsp. enterica serovar Typhi.
For test [14], the target named is HLA-A*02:01. The test is described as above.
The target in the next test is HLA-B*27:03. Described as above.
Another test addresses HLA-B*39:01. The test is described as above. Particulars: source organism: Salmonella enterica subsp. enterica serovar Typhi.
Test [15] addresses HLA-B*18:01. The test is described as above.
Test [16] has as its target HLA-B*57:01. The test is described as above.
The next test concerns the target HLA-B*51:01. The description is as above. Particulars: source organism: Salmonella enterica subsp. enterica serovar Typhi.
For test [17], the target named is HLA-B*15:01. Described as above.
Test [18] addresses HLA-B*46:01. The test is described as above.
Test [19] has as its target HLA-A*29:02. Described as above. Particulars: source organism: Salmonella enterica subsp. enterica serovar Typhi.
Test [20] deals with HLA-A*03:01. The description is as above. Particulars: source organism: Salmonella enterica subsp. enterica serovar Typhi.
In test [21] the target is HLA-A*26:01. The test is described as above.
The target of test [22] is HLA-A*02:01. Kind of test: IEDB peptide-MHC binding, purified MHC/direct/fluorescence; filed as Kd, often an IC50 or EC50 that approximates it; ≥ and ≤ were set here for values at or beyond the usual limits of such assays. The conditions noted are these: source organism: Reston ebolavirus.
Setting [23] is: source organism: Mycobacterium tuberculosis variant bovis.
Setting [24] is: source organism: Escherichia coli O157:H7.
Where [25] appears, read: source organism: Shigella flexneri.
Setting [26] is: source organism: Dengue virus 2 Jamaica/1409/1983.
The mark [27] stands for this setting: source organism: Salmonella enterica subsp. enterica serovar Typhi.
The mark [28] stands for this setting: source organism: Zaire ebolavirus.
Setting [29] is: source organism: Escherichia coli O139:H28 str. E24377A.

Regarding AIGLAWIPY, the IC50 (commonly the concentration that inhibits the measured activity by half) is 61.4 µM with HLA-A*11:01 [1]; ≥ 245 µM with HLA-A*02:01 [2]; ≥ 166 µM with HLA-A*24:02; 1.46 µM with HLA-B*15:01 [3]; 1.54 µM in the test with HLA-A*03:01 [4].

With KTKLTDWDF, in the test with HLA-B*57:01 [5] (source organism: Dengue virus 4 Philippines/H241/1956), the Kd (in general, the equilibrium constant for the complex coming apart) came out at 0.132 µM.

As for PMQQLTQPL, the Kd with HLA-A*01:01 (setting [23]), in the test with HLA-A*11:01 [6] (setting [23]), with HLA-B*40:01 (setting [23]), with HLA-A*31:01 (setting [23]), with HLA-A*69:01 (setting [23]) and in the test with HLA-B*48:01 was ≥ 20 µM in each case. Besides, the Kd with HLA-B*18:01 [7], with HLA-B*57:01 [8] (setting [23]), with HLA-B*15:01 [9] (setting [23]), with HLA-B*58:01 (setting [23]), in the test with HLA-B*27:05 (setting [23]) and with HLA-B*46:01 [10] was ≥ 20 µM in each case. For the same sequence, the Kd with HLA-B*08:01 (setting [23]), with HLA-A*29:02 [11] (setting [23]) and with HLA-A*03:01 [12] (setting [23]) was ≥ 20 µM each time.

As for ITIPIGLYL, the Kd in the test with HLA-A*01:01 (setting [24]), with HLA-A*11:01 [6] (setting [24]), with HLA-B*40:01 (setting [24]), in the test with HLA-A*31:01 (setting [24]), with HLA-A*69:01 (setting [24]) and with HLA-A*26:01 [13] was ≥ 20 µM each time. For the same sequence, the Kd was 0.349 µM with HLA-B*57:01 [8] (setting [24]); 2.97 µM in the test with HLA-B*15:01 [9] (setting [25]); 0.0101 µM with HLA-B*58:01 (setting [25]); ≥ 20 µM with HLA-B*44:02; ≥ 20 µM with HLA-B*27:05 (setting [24]); ≥ 20 µM with HLA-B*08:01 (setting [24]). For the same sequence, the Kd in the test with HLA-C*03:03 (source organism: Escherichia coli O157:H7 str. EDL933) is 0.094 µM; with HLA-A*03:01 [12] (setting [24]), ≥ 20 µM; with HLA-B*15:17, 0.0018 µM.

For the sequence GSSPILSITI, in the test with HLA-B*57:01 [5] (setting [26]), the Kd was determined as 0.114 µM.

Take ESSPNPTVEA: the Kd with HLA-B*57:01 [5] (source organism: Dengue virus 2 Peru/IQT2913/1996) was determined as 0.323 µM.

For the sequence PTAGILARW, in the test with HLA-B*57:01 [5] (source organism: Dengue virus 1 Brazil/97-11/1997), the Kd was found to be 0.0127 µM.

For the sequence AVFTEENQW, the Kd with HLA-B*57:01 [5] (source organism: Dengue virus 3 Martinique/1243/1999) was found to be 0.0495 µM.

Regarding HVTQHWPQL, the Kd with HLA-A*02:19 was ≥ 20 µM; with HLA-A*02:11, ≥ 20 µM; with HLA-A*02:03, ≥ 20 µM; with HLA-A*02:12, 7.05 µM; in the test with HLA-A*02:01 [14] (setting [27]), ≥ 20 µM; in the test with HLA-B*27:03 (setting [27]), ≥ 20 µM. The Kd with HLA-B*39:01, with HLA-B*18:01 [15] (setting [27]), with HLA-B*57:01 [16] (setting [27]), with HLA-B*51:01, in the test with HLA-B*15:01 [17] (setting [27]) and in the test with HLA-B*46:01 [18] (setting [27]) was ≥ 20 µM each time. The Kd with HLA-A*29:02 [19] and with HLA-A*03:01 [20] was ≥ 20 µM in each case.

As to LGKSYAQMW, in the test with HLA-B*57:01 [5] (setting [26]), the Kd turned out to be 0.0927 µM.

On to PTAIYTLEY, for which the Kd with HLA-A*01:01 (source organism: Mycobacterium tuberculosis) is 0.0092 µM; with HLA-A*29:02 [11] (source organism: Mycobacterium tuberculosis str. Haarlem) it was 0.006 µM.

For FLSFASLFL, the Kd in the test with HLA-B*27:03 (setting [28]) was ≥ 20 µM; in the test with HLA-B*18:01 [15] (setting [28]), ≥ 20 µM; with HLA-A*26:01 [21] (setting [28]), ≥ 20 µM; in the test with HLA-B*57:01 [16] (setting [28]), ≥ 20 µM; with HLA-B*46:01 [18] (setting [28]), ≥ 20 µM; with HLA-A*02:01 [22], ≤ 0.001 µM. The Kd is 0.005 µM with HLA-C*03:03 (setting [28]) and ≥ 20 µM with HLA-A*03:01 [12] (setting [28]). Moreover, the IC50 with HLA-A*02:01 [2] worked out at 0.0489 µM; with HLA-A*24:02, 0.276 µM; with HLA-B*15:01 [3], 8.79 µM.

On to YVVWLMFSL, for which the Kd is 0.312 µM in the test with HLA-A*02:01 [14] (setting [29]), ≥ 20 µM with HLA-A*26:01 [21] (setting [29]), ≥ 20 µM with HLA-B*15:01 [17] (setting [29]) and 2.19 µM with HLA-C*03:03 (setting [29]).
